Patent publication US20250115663A1 (CELLDEX THERAPEUTICS, published 2025)
Changes are numbered by the printed parent chain.

T1: kappa-sCD40(1-94)-Flag point mutant E33A (human, UniProt P25942 21-114)
T1 construct: not shown: N-terminal human kappa light chain; C-terminal Flag tag
T1 chain: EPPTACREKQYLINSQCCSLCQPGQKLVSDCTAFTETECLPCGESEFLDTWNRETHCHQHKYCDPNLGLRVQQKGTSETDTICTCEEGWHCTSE

T2: kappa-sCD40(1-94)-Flag point mutant F34L (human, UniProt P25942 21-114)
T2 construct: not shown: N-terminal human kappa light chain; C-terminal Flag tag
T2 chain: T1 chain with A33E, F34L

T3: kappa-sCD40(1-94)-Flag point mutant E36K (human, UniProt P25942 21-114)
T3 construct: not shown: N-terminal human kappa light chain; C-terminal Flag tag
T3 chain: T1 chain with A33E, E36K

T4: kappa-sCD40(1-94)-Flag point mutant T4V (human, UniProt P25942 21-114)
T4 construct: not shown: N-terminal human kappa light chain; C-terminal Flag tag
T4 chain: T1 chain with T4V, A33E

T5: kappa-sCD40(1-94)-Flag point mutant T35E (human, UniProt P25942 21-114)
T5 construct: not shown: N-terminal human kappa light chain; C-terminal Flag tag
T5 chain: T1 chain with A33E, T35E

T6: kappa-sCD40(1-94)-Flag point mutant P2Q (human, UniProt P25942 21-114)
T6 construct: not shown: N-terminal human kappa light chain; C-terminal Flag tag
T6 chain: T1 chain with P2Q, A33E

B1: anti-CD40 human monoclonal antibody 3C3 (antibody, human IgG2, kappa, V domains shown)
VH: QVQLVESGGGVVQPGRSLRLSCAGSGFIFSRYGMYWVRQAPGKGLEWVAVIWYDGSYKYYADSVKGRFTISRDNSKNTLYLQMNSLRAEDTAVYYCARESPWYYFDYWGQGTLVTVSS
VL: DIQMTQSPSSLSASVGDRVTITCRASQGISNYLAWYQQKPGKVPKLLIYAASTLQSGVPSRFSGSGSGTDFTLTISSLQPEDVATYYCQKYKSAPFTFGPGTKVDIKR
notes: Human IgG2, C-terminal lysine removed; also called anti-CD40 mAb 3C3; CD40 antibody 3C3
B2: anti-CD40 human monoclonal antibody 3G5 (antibody, human IgG2, V domains shown)
VH: QVQLVESGGGVVQPGKSLRLSCAASGFTFSSNGIHWVRQAPGKGLEWVAVIWSDGSNKFYADSVKGRFTISRDNSKNTLYLQMNSLRAEDTAVYYCARASGSGSYYNFFDYWGQGTLVTVSS
VL: EIVMTQSPATLSVSPGERATLSCRASQSVRSNLAWYQQKPGQAPRLLIYGASTRATGIPARFSGSGSGTEFTLTINSLQSEDFAVYYCQQHNKWITFGQGTRLEIK
notes: Human IgG2

Tests used:
[1] = molecular target: T1, kappa-sCD40(1-94)-Flag point mutant E33A; assay: ELISA, mutated kappa-sCD40(1-94)-Flag captured on anti-Flag antibody, detection anti-human IgG Fc-HRP; the concentration axis is taken as that of 3C3
Protocol: (§1) 1 μg/ml of purified kappa-sCD40-Flag fusion proteins or CHO cell supernatants containing the sCD40 fusion proteins were captured to microtiter plates that were pre-coated with 5 μg/ml mouse anti-Flag antibody (Sigma) in PBS and blocked with 5% bovine serum albumin in PBS. Following incubation with the CD40 antibody, the microplates were washed with PBS/Tween, and incubated with a goat anti-human IgG Fc polyclonal reagent conjugated to horseradish peroxidase. After washing, the plates were developed with HRP substrate, and analyzed at OD 450-650 using a microtiter plate reader. An ELISA with a goat anti-human IgG Fab2-HRP to measure kappa chain binding was carried out in parallel to validate the sCD40 fusion protein expression from different transfections.

[2] = molecular target: T2, kappa-sCD40(1-94)-Flag point mutant F34L; assay: as above
Protocol: as §1

[3] = molecular target: T7, kappa-sCD40(1-94)-Flag point mutant E1G (human, UniProt P25942 22-114); assay: as above
T7 construct: not shown: N-terminal human kappa light chain; C-terminal Flag tag
Protocol: as §1

[4] = molecular target: T3, kappa-sCD40(1-94)-Flag point mutant E36K; assay: as above
Protocol: as §1

[5] = molecular target: T4, kappa-sCD40(1-94)-Flag point mutant T4V; assay: as above
Protocol: as §1

[6] = molecular target: T5, kappa-sCD40(1-94)-Flag point mutant T35E; assay: as above
Protocol: as §1

[7] = molecular target: T6, kappa-sCD40(1-94)-Flag point mutant P2Q; assay: as above
Protocol: as §1

[8] = molecular target: T8, recombinant human CD40-Fc (human, UniProt P25942 21-193); assay: ELISA on coated recombinant human CD40-Fc, detection anti-human IgG F(ab')2-HRP, OD 450-650
T8 construct: also called soluble recombinant human CD40/Fc chimera from R&D Systems; not shown: The antibody Fc domain of the R&D Systems chimera and any linker to it
T8 sequence (P25942 21-193 limits assumed, form in doubt): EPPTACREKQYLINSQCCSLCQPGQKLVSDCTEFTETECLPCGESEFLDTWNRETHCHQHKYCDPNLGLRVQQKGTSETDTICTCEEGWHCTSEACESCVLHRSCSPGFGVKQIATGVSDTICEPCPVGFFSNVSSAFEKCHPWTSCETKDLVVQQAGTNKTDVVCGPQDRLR
Protocol: Microtiter plates were coated with recombinant human CD40-Fc in PBS, and then blocked with 5% bovine serum albumin in PBS. […] The plates were washed with PBS/Tween and then incubated with a goat-anti-human IgG F(ab′)2-specific polyclonal reagent conjugated to horseradish peroxidase at 37° C. After washing, the plates were developed with HRP substrate, and analyzed at OD 450-650 using a microtiter plate reader.

[9] = molecular target: T9, soluble human CD40-MsIgG2a (human, UniProt P25942); assay: BLI (Octet QKe), antibody captured on anti-human Fc (AHC) biosensors, analyte soluble human CD40-MsIgG2a 3.13 to 0.098 nM, 25 C, 1:1 fit
T9 construct: soluble, fused to mouse IgG2a; also called recombinant human CD40-msG2a chimeric protein; CD40-MsIgG2a (Celldex, 60 kD by SDS-PAGE)
Protocol: Purified antibodies from Example 1 were captured on Anti-Human Fc Capture (AHC) biosensors (Fortebio Product No. 18-5060). Each antibody was prepared in dilution buffer (10mMPO4+150 mM NaCl+1 mg/mL BSA+0.5% Tween 20, pH 7.2) to 0.5 μg/mL and loaded on freshly hydrated AHC biosensors for 35-50 sec at 25° C. and 1000 rpm plate shake speed to achieve a target response of 0.2 nm. Low levels of ligand were captured to limit any effects of mass transport of analyte on kinetic parameters. For one assay, eight biosensors were loaded with the same antibody.
Binding was determined by exposing six of the antibody loaded biosensors to analyte: soluble human CD40-MsIgG2a (Celldex, 60 kD by SDS-PAGE). Affinity measurements were determined using 2-fold serial dilutions of analyte ranging from 3.13 to 0.098 nM in dilution buffer at 25° C. and 1000 rpm plate shake speed. Association of the antibody loaded biosensors in analyte wells was carried out for 1200 seconds, the biosensors were then moved to dilution buffer wells for 2.5 hrs (9000 sec) for dissociation measurements.
Fortebio's Data Analysis Software version 8.2.0.7 (Pall ForteBio, Menlo Park, CA) was used in each case to derive kinetic parameters from the concentration series of analyte in dilution buffer binding to captured antibody. The association and dissociation curves were fitted to a 1:1 binding model using the data analysis software according to the manufacturer's guidelines.

Row | Binder | EC50 (read off the curve) [1] | EC50 (read off the curve) [2] | EC50 (read off the curve) [3] | EC50 (read off the curve) [4] | EC50 (read off the curve) [5] | EC50 (read off the curve) [6] | EC50 (read off the curve) [7] | EC50 (read off the curve) [8] | Kd [9] | kon [9]
1 | B1 | ~0.2 µg/mL | ~0.06 µg/mL | ~0.04 µg/mL | ~0.09 µg/mL | ~0.02 µg/mL | ~0.02 µg/mL | ~0.02 µg/mL | ~0.4 nM | 0.0107 nM | 813000 M⁻¹ s⁻¹
2 | B2 |  |  |  |  |  |  |  | ~0.4 nM | 0.0033 nM | 
